Data published in patent publication US6500417 (DSM N V, dated 2002).

B1: hIL-3 substitution mutant 1480 (Asp36→Arg36) (ligand)
chain: APMTQTTPLKTSWVNCSNMIDEIITHLKQPPLPLLRFNNLNGEDQDILMENNLRRPNLEAFNRAVKSLQNASAIESILKNLLPCLPLATAAPTRHPIHIKDGDWNEFRRKLTFYLKTLENAQAQQTTLSLAIF
notes: also called 36D→R; not shown: heterologous N-terminal leader of the E. coli fusion (pGB/IL-336: 12 aa; pGB/IL-339: 15 aa)
B2: hIL-3 substitution mutant 1482 (Asp46→Arg46) (ligand)
chain: APMTQTTPLKTSWVNCSNMIDEIITHLKQPPLPLLDFNNLNGEDQRILMENNLRRPNLEAFNRAVKSLQNASAIESILKNLLPCLPLATAAPTRHPIHIKDGDWNEFRRKLTFYLKTLENAQAQQTTLSLAIF
notes: also called 46D→R; not shown: heterologous N-terminal leader of the E. coli fusion (pGB/IL-336: 12 aa; pGB/IL-339: 15 aa)
B3: hIL-3 substitution mutant 1485 (Glu59→Lys59) (ligand)
chain: APMTQTTPLKTSWVNCSNMIDEIITHLKQPPLPLLDFNNLNGEDQDILMENNLRRPNLKAFNRAVKSLQNASAIESILKNLLPCLPLATAAPTRHPIHIKDGDWNEFRRKLTFYLKTLENAQAQQTTLSLAIF
notes: also called 59E → K; not shown: heterologous N-terminal leader of the E. coli fusion (pGB/IL-336: 12 aa; pGB/IL-339: 15 aa)
B4: hIL-3 substitution mutant 1487A (Glu75→Gly75) (ligand)
chain: APMTQTTPLKTSWVNCSNMIDEIITHLKQPPLPLLDFNNLNGEDQDILMENNLRRPNLEAFNRAVKSLQNASAIGSILKNLLPCLPLATAAPTRHPIHIKDGDWNEFRRKLTFYLKTLENAQAQQTTLSLAIF
notes: also called 75E → G; not shown: heterologous N-terminal leader of the E. coli fusion (pGB/IL-336: 12 aa; pGB/IL-339: 15 aa)
B5: hIL-3 substitution mutant 1487B (Glu75→Arg75) (ligand)
chain: APMTQTTPLKTSWVNCSNMIDEIITHLKQPPLPLLDFNNLNGEDQDILMENNLRRPNLEAFNRAVKSLQNASAIRSILKNLLPCLPLATAAPTRHPIHIKDGDWNEFRRKLTFYLKTLENAQAQQTTLSLAIF
notes: also called 75E → R; not shown: heterologous N-terminal leader of the E. coli fusion (pGB/IL-336: 12 aa; pGB/IL-339: 15 aa)
B6: hIL-3 substitution mutant 1490 (His98Lys100Asp101→Glu98Asp100Gln101) (ligand)
chain: APMTQTTPLKTSWVNCSNMIDEIITHLKQPPLPLLDFNNLNGEDQDILMENNLRRPNLEAFNRAVKSLQNASAIESILKNLLPCLPLATAAPTRHPIEIDQGDWNEFRRKLTFYLKTLENAQAQQTTLSLAIF
notes: also called 98HIKD → EIKQ; not shown: heterologous N-terminal leader of the E. coli fusion (pGB/IL-336: 12 aa; pGB/IL-339: 15 aa)
B7: hIL-3 substitution mutant 1491 (Glu106→Lys106) (ligand)
chain: APMTQTTPLKTSWVNCSNMIDEIITHLKQPPLPLLDFNNLNGEDQDILMENNLRRPNLEAFNRAVKSLQNASAIESILKNLLPCLPLATAAPTRHPIHIKDGDWNKFRRKLTFYLKTLENAQAQQTTLSLAIF
notes: also called 106E → K; not shown: heterologous N-terminal leader of the E. coli fusion (pGB/IL-336: 12 aa; pGB/IL-339: 15 aa)
B8: hIL-3 deletion mutant 821 (deletion 94-102) (ligand)
chain: APMTQTTPLKTSWVNCSNMIDEIITHLKQPPLPLLDFNNLNGEDQDILMENNLRRPNLEAFNRAVKSLQNASAIESILKNLLPCLPLATAAPTDWNEFRRKLTFYLKTLENAQAQQTTLSLAIF
notes: not shown: heterologous N-terminal leader of the E. coli fusion (pGB/IL-336: 12 aa; pGB/IL-339: 15 aa)
B9: hIL-3 deletion mutant 938 (deletion 103-111) (ligand)
chain: APMTQTTPLKTSWVNCSNMIDEIITHLKQPPLPLLDFNNLNGEDQDILMENNLRRPNLEAFNRAVKSLQNASAIESILKNLLPCLPLATAAPTRHPIHIKDGTFYLKTLENAQAQQTTLSLAIF
notes: as for B8
B10: hIL-3 deletion mutant 939 (deletion 120-130) (ligand)
chain: APMTQTTPLKTSWVNCSNMIDEIITHLKQPPLPLLDFNNLNGEDQDILMENNLRRPNLEAFNRAVKSLQNASAIESILKNLLPCLPLATAAPTRHPIHIKDGDWNEFRRKLTFYLKTLEAIF
notes: as for B8
B11: hIL-3 double deletion mutant 9329 (deletions 1-14/120-130) (ligand)
chain: NCSNMIDEIITHLKQPPLPLLDFNNLNGEDQDILMENNLRRPNLEAFNRAVKSLQNASAIESILKNLLPCLPLATAAPTRHPIHIKDGDWNEFRRKLTFYLKTLEAIF
notes: not shown: heterologous N-terminal leader of the E. coli fusion, rebuilt with oligonucleotides 1424/1425
B12: hIL-3 deletion mutant 932 (deletion 1-14) (ligand)
chain: NCSNMIDEIITHLKQPPLPLLDFNNLNGEDQDILMENNLRRPNLEAFNRAVKSLQNASAIESILKNLLPCLPLATAAPTRHPIHIKDGDWNEFRRKLTFYLKTLENAQAQQTTLSLAIF
notes: as for B8
B13: hIL-3 deletion mutant 934 (deletion 47-54) (ligand)
chain: APMTQTTPLKTSWVNCSNMIDEIITHLKQPPLPLLDFNNLNGEDQDRPNLEAFNRAVKSLQNASAIESILKNLLPCLPLATAAPTRHPIHIKDGDWNEFRRKLTFYLKTLENAQAQQTTLSLAIF
notes: as for B8
B14: hIL-3 deletion mutant 935 (deletion 60-70) (ligand)
chain: APMTQTTPLKTSWVNCSNMIDEIITHLKQPPLPLLDFNNLNGEDQDILMENNLRRPNLEASAIESILKNLLPCLPLATAAPTRHPIHIKDGDWNEFRRKLTFYLKTLENAQAQQTTLSLAIF
notes: as for B8
B15: hIL-3 deletion mutant 813 (deletion 66-80) (ligand)
chain: APMTQTTPLKTSWVNCSNMIDEIITHLKQPPLPLLDFNNLNGEDQDILMENNLRRPNLEAFNRAVLLPCLPLATAAPTRHPIHIKDGDWNEFRRKLTFYLKTLENAQAQQTTLSLAIF
notes: also called 4813; not shown: heterologous N-terminal leader of the E. coli fusion (pGB/IL-336: 12 aa; pGB/IL-339: 15 aa)
B16: hIL-3 C-terminal deletion mutant 1455 (lacking amino acids 130-133) (ligand)
chain: APMTQTTPLKTSWVNCSNMIDEIITHLKQPPLPLLDFNNLNGEDQDILMENNLRRPNLEAFNRAVKSLQNASAIESILKNLLPCLPLATAAPTRHPIHIKDGDWNEFRRKLTFYLKTLENAQAQQTTLS

Legend:
IL-3 receptor (human) = IL-3 receptor (human) (UniProt P26951); assay: cell-based or functional assay
IL-3 receptor [1] = target: T1, IL-3 receptor (human, UniProt P26951 19-378; P32927 17-897); assay: competition with radiolabeled hIL-3 for binding to cells, relative to reference IL-3; done once
T1 construct: whole, on cells; also called ILK3 receptor
Description: (§1) An ILK3 receptor binding assay was performed with purified recombinant hIL-3 (see EPA 0390252) was radiolabeled with the Bolton-Hunter reagent (as described by Budel et al., Blood 74 (1989) 565–571). The specific activity was estimated at 80,000 cpm/ng of IL-3. As target, either donor leukocytes, patient AML cells, or MV4-11 (ATCC: CRL-9591) cells were used. Cells were washed in Hanks Balanced Salt solution and suspended in Alpha-MEM plus 1% BSA. Usually, 3–10×10⁶ cells were incubated with 200–300 pM of radiolabeled IL-3 and various concentrations of unlabeled mutant protein in a total volume of 200 µl for 1 hr at 37° C. Cell-bound labeled IL-3 was centrifuged for 10 min at 1000×g at 4° C. through a 0.5 ml cushion of bovine calf serum in an Eppendorf tube (Budel et al., 1989). The tubes were frozen in liquid nitrogen and the tips cut off for counting in a Packard gamma counter. Competition binding was determined relative to the reference preparation. […] Radiolabeled IL-3 binding to patient AML blasts is competed with unlabeled IL-3 protein (reference preparation). Due to the low number of receptors (less than 200) on the target cells, data for competition mostly varied by one order of magnitude.
[1]Deletion between amino acid numbers of mature human IL-3 is indicated. Substitutions of amino acids are indicated in single letter code. [2]Median specific biological activity is expressed relative to the reference IL-3 preparations. [3]Antagonistic potential is represented as relative receptor binding activity divided by relative biological activity. The range is presented between brackets. […] Muteins were diluted in medium and tested for biological activity. Receptor binding experiments were performed once. †Mutein protein concentration was too low for densitometric scanning and was estimated from gels and western blots. ¤Mutant proteins were expressed in Bacillus and lack a leader polypeptide sequence.

IL-3 receptor [2] = target: T1, IL-3 receptor; assay: cell-based or functional assay
IL-3 receptor [3] = target: T1, IL-3 receptor; assay: competition with radiolabeled IL-3 for binding to cells; NC: No competition was observed for the particular mutein preparation
Description: as §1

IL-3 receptor [4] = target: T1, IL-3 receptor; assay: receptor binding assay on cells
IL-3 receptor [5] = target: T1, IL-3 receptor; assay: competition with radiolabeled hIL-3 for binding to cells, relative to reference IL-3
Description: as §1

T1 sequence (P26951 19-378, chain 1 of 2): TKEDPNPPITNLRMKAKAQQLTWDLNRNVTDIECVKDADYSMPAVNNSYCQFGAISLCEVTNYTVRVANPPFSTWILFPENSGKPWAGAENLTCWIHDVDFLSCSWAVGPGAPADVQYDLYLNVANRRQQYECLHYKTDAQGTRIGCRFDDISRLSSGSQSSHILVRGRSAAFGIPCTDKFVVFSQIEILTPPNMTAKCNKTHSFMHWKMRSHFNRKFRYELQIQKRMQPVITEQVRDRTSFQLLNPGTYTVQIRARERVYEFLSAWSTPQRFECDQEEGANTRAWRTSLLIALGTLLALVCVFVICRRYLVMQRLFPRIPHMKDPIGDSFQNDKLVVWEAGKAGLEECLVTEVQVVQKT
T1 sequence (P32927 17-897, chain 2 of 2): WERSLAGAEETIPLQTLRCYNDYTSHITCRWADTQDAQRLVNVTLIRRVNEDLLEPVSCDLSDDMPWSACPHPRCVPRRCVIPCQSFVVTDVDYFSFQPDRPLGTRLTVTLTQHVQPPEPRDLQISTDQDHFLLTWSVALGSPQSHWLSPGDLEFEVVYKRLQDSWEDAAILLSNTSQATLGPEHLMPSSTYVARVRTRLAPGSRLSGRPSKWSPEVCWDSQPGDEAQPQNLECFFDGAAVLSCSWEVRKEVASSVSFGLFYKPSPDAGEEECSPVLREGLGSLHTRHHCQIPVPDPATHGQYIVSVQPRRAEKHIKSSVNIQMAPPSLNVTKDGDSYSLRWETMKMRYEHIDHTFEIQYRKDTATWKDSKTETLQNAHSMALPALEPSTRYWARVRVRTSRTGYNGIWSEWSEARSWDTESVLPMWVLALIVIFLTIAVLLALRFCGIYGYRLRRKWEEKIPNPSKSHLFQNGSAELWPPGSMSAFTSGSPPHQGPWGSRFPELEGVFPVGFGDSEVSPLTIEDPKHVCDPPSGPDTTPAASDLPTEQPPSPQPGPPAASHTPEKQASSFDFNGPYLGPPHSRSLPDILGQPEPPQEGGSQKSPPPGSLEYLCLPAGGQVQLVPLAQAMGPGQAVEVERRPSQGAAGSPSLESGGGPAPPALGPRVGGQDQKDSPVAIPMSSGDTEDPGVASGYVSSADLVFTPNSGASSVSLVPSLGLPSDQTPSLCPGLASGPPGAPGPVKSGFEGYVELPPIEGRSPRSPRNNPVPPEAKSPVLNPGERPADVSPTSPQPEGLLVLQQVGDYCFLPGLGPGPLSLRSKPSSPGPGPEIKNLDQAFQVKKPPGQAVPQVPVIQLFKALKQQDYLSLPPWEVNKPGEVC
Sequence of IL-3 receptor (human) (P26951 19-378, chain 1 of 2): as the sequence (P26951 19-378, chain 1 of 2) above
Sequence of IL-3 receptor (human) (P32927 17-897, chain 2 of 2, further chain): as the sequence (P32927 17-897, chain 2 of 2) above

Row | Molecule | relative antagonistic potential (relative receptor binding activity / relative biological activity) (IL-3 receptor [1]) | REL. SPEC. BIOLOGICAL ACTIVITY (DNA synthesis of AML193 cells) (IL-3 receptor [2]) | further results
1 | hIL-3 substitution mutant 1489 (Arg94→Pro94) (from UniProt P08700 20-152) (ligand) | – | – | REL. SPEC. BIOLOGICAL ACTIVITY (DNA synthesis of AML193 cells) (relative to reference IL-3) (IL-3 receptor (human)): 0.0017
2 | B1 | 12 | 0.0031 relative to reference IL-3 | –
3 | B2 | 0.6 | 0.0075 relative to reference IL-3 | –
4 | B3 | 3 | 0.011 relative to reference IL-3 | –
5 | B4 | 3 | 0.015 relative to reference IL-3 | –
6 | B5 | 3 | 0.0086 relative to reference IL-3 | –
7 | B6 | 5 | 0.0022 relative to reference IL-3 | –
8 | B7 | 6 | 0.00032 relative to reference IL-3 | –
9 | B8 | – | 1.8e-05 relative to reference IL-3 | binding result (IL-3 receptor [3]): no binding
10 | B9 | – | 6.6e-05 relative to reference IL-3 | binding result (IL-3 receptor [3]): no binding
11 | B10 | – | 2 relative to reference IL-3 | binding activity retained (IL-3 receptor [4]): 100 percent; relative antagonistic potential (relative receptor binding activity / relative biological activity) (IL-3 receptor [5]): 1.8
12 | B11 | – | 0.4 relative to reference IL-3 | binding activity retained (IL-3 receptor [4]): 100 percent; relative antagonistic potential (relative receptor binding activity / relative biological activity) (IL-3 receptor [5]): 2
13 | B12 | – | 0.71 relative to reference IL-3 | binding activity retained (IL-3 receptor [4]): 100 percent; relative antagonistic potential (relative receptor binding activity / relative biological activity) (IL-3 receptor [5]): 2.8
14 | B13 | – | 7.3e-05 relative to reference IL-3 | binding result (IL-3 receptor [3]): no binding
15 | B14 | – | 1.2e-05 relative to reference IL-3 | binding result (IL-3 receptor [3]): no binding
16 | B15 | – | 2.4e-05 relative to reference IL-3 | binding result (IL-3 receptor [3]): no binding
17 | B16 | – | – | binding activity retained (IL-3 receptor [4]): 100 percent
